Assay results: publication PMC11384143, “A pan-allelic human SIRPα-blocking antibody, ES004-B5, promotes tumor killing by enhancing macrophage phagocytosis and subsequently inducing an effective T-cell response” (Antibody Therapeutics, 2024)

How the values were obtained:
[1] = biological target: T1, 6 × His tagged huSIRPγ ECD recombinant protein (Homo sapiens (Human)., UniProt Q9P1W8); assay: SPR; Biacore T200, 25°C; antibody captured on anti-human IgG (Fc) CM5 chip (80 ± 12 RU); 6 × His tagged SIRP analyte 30–0.9375 nM in 1× HBS-EP+; 1:1 binding model; conditions: both partners purified
T1 construct: signal regulatory protein gamma (SIRPγ, SIRP beta2), human, extracellular domain; also called signal regulatory protein gamma; SIRP beta2; source: bought: KACTUS

[2] = biological target: T2, cynomolgus SIRPα overexpressed on CHOK1/cSIRPα cells (Macaca fascicularis, UniProt A0A2K5VYQ9); assay: flow cytometry on cells; serial dilutions of antibody on CHOK1 cells overexpressing SIRPα, 1 h at 4°C; Alexa Fluor 647 anti-human IgG Fcγ secondary antibody; MFI; conditions: one partner purified
T2 construct: signal regulatory protein alpha (SIRPα), cynomolgus monkey, overexpressed on CHO-K1 cells; also called cynomolgus SIRPα-expressing cells; source: CHOK1/cSIRPα cell line, bought: Chempartner

[3] = biological target: T3, 6 × His tagged cynomolgus SIRPα ECD recombinant protein (Macaca fascicularis, UniProt A0A2K5VYQ9); assay: SPR; Biacore T200, 25°C; antibody captured on anti-human IgG (Fc) CM5 chip (80 ± 12 RU); 6 × His tagged SIRP analyte 30–0.9375 nM in 1× HBS-EP+; 1:1 binding model; conditions: both partners purified
T3 construct: signal regulatory protein alpha (SIRPα), cynomolgus monkey, extracellular domain; also called cynomolgus monkey SIRPα; source: bought: KACTUS

T1 sequence (Q9P1W8 29-360): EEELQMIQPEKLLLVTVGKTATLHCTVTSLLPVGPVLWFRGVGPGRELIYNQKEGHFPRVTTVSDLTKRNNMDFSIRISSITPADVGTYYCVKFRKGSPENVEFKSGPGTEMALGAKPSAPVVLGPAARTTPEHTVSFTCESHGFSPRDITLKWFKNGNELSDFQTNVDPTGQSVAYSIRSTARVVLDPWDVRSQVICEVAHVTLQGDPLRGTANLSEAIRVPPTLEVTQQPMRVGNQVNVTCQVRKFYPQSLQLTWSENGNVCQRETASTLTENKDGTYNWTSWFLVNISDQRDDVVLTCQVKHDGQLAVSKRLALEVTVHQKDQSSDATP

B1: hu1H9 (an analogue of FSI-189, Gilead) (antibody, V domains shown)
VH: QVQLVQSGAEVKKPGASVKVSCKASGYTFTSYWITWVKQAPGQGLEWIGDIYPGSGSTNHIEKFKSKATLTVDTSISTAYMELSRLRSDDTAVYYCATGYGSSYGYFDYWGQGTLVTVSS
VL: DIQMTQSPSSLSASVGDRVTITCRASENIYSYLAWYQQKPGKAPKLLIYTAKTLAEGVPSRFSGSGSGTDFTLTISSLQPEDFATYYCQHQYGPPFTFGQGTKLEIK
notes: human IgG4
binding result [1]: binds

B2: HEFLB (an analogue of BI 765063) (antibody, V domains shown)
VH: EVQLVQSGAEVKKPGESLRISCKASGYSFTSYWVHWVRQMPGKGLEWMGNIDPSDSDTHYSPSFQGHVTLSVDKSISTAYLQLSSLKASDTAMYYCVRGGTGTLAYFAYWGQGTLVTVSS
VL: DVVMTQSPLSLPVTLGQPASISCRSSQSLVHSYGNTYLYWFQQRPGQSPRLLIYRVSNRFSGVPDRFSGSGSGTDFTLKISRVEAEDVGVYYCFQGTHVPYTFGGGTKVEIK
notes: human IgG4; also called analogue of BI 765063 (OSE-172)
binding result [2]: no binding | binding result [3]: no binding (tested: 30 nM (highest analyte concentration)) | binding result [1]: no binding (tested: 30 nM (highest analyte concentration))
